Target: the molecule itself
Experiment: SEC; size exclusion chromatography of recombinant Cbz-ase (Fig. S32); conditions not told in the main text

B1: Sphingomonas paucimobilis Cbz-ase (amidohydrolase), recombinant (enzyme)
chain: MVQPTPTPQSELPGLIARDMEGLMTLYRDLHANPELSLQEVNTAAKLAKRLKAMKFDVTEKVGGTGVVAVMKNGSGPVLLIRADMDGLPVVEQTGLDFASKVRTKTPEGVETGVMHACGHDTHMTAFIETAKLLSSSKDKWKGTLVMILQPAEEVGKGARDMLEDGLYTRFPRPTHAIAFHDAANLQAGVVGYTPGYALANVDSVDIVVKGLGGHGAYPQTTRDPIVLGSRIVTSLQTLVSREQDPQDPAVVTVGSFQAGAKHNIIPDQALLLLTVRSYSDETRAKLIKGIERIARGEAIAAGVPDDKMPVVSVKDEFTPSTYNPPEFAEQMGALLKGHFAEGRVVKTPAVMGGEDFGRFYRADKSINSFIFWVGGVPADKMAAAQAGQITLPSLHSPFWAPEADKVIATASEAMTVLAMDILKKD
  stoichiometry N: 4
